The source of these data is patent US20230293647A1.

Experiment [1] has as its target recombinant full length SARS-CoV-2 spike protein (SARS-CoV-2) (UniProt P0DTC2).
The target of experiment [2] is FcγR on K562 cells (reported to express RNA for FcγRIIa and IIIa/b).

Take “ACE2-CR3022 scFv-Fc (from UniProt Q9BYF1 18-740) (Fc fusion)”: the EC50 (read off the curve) in experiment [1] amounted to 90 pM.
On the same count and under the same terms, to “CR3022 scFv-ACE2-Fc (from UniProt Q9BYF1 18-740) (Fc fusion)” belongs 60 pM.
The substance “Inactive ACE2 (HH:NN) (18-740)-Fc (Fc fusion)” gave an EC50 (read off the curve) in experiment [2] of 40000 pM.

Broadly, the EC50 (read off the curve) is the concentration needed to bring the measured effect to its halfway point.
